B1: B7-DC-Ig-APC: B7-DC-Ig conjugated with allophycocyanin (APC) (conjugate)
chain: LFTVTAPKEVYTVDVGSSVSLECDFDRRECTELEGIRASLQKVENDTSLQSERATLLEEQLPLGKALFHIPSVQVRDSGQYRCLVICGAAWDYKYLTVKVKASYMRIDTRILEVPGTGEVQLTCQARGYPLAEVSWQNVSVPANTSHIRTPEGLYQVTSVLRLKPQPSRNFSCMFWNAHMKELTSAIIDPLSRMEPKVPRTWEPRGPTIKPCPPCKCPAPNLLGGPSVFIFPPKIKDVLMISLSPIVTCVVVDVSEDDPDVQISWFVNNVEVHTAQTQTHREDYNSTLRVVSALPIQHQDWMSGKEFKCKVNNKDLPAPIERTISKPKGSVRAPQVYVLPPPEEEMTKKQVTLTCMVTDFMPEDIYVEWTNNGKTELNYKNTEPVLDSDGSYFMYSKLRVEKKNWVERNSYSCSVVHEGLHNHHTTKSFSRTPGK
B2: B7-DC-Ig: homodimer having 2 copies of SEQ ID NO: 10 linked by a disulfide linkage; mouse B7-DC ECD fused to Fc of mouse IgG2a (protein)
chain: B1 chain
modifications: homodimer via disulfide; Murine B7-DC-Ig fusion protein without signal sequence
notes: mouse B7-DC ECD fused to Fc of mouse IgG2a

Assays:
[1] = tested on: CT26 colorectal tumor cells; experiment: CT26 subcutaneous established tumor model, tumor eradication; format: in vivo, Balb/C mice
Method: Mouse colorectal tumor cell line, CT26, was obtained from ATCC. A master cell bank at Passage 4 was generated following ATCC guidelines. […] One vial of tumor cells was thawed from the cryopreserved stocks and grown for two passages prior to inoculation.
CT26 cells were split at 1:5 dilution with 30 mL complete medium (RPMI+10% FBS, 2 mM L-Glu, and 1×P/S) for two days culture or at 1:10 dilution with 30 ml complete medium for 3 days culture.
CT26 cells were harvested by aspirating medium, rinsing the flask with 5 mL PBS, adding 5 mL trypsin, incubating at 37° C. for 2 min, and then neutralizing with 10 mL complete medium. After centrifuge at 600×g (˜1000 rpm) for 5 min, media was aspirated and the cell pellet was resuspended by pipetting with 10 ml plain RPMI. This wash step was repeated for three times.
Cell number and viability of the inoculated cells were analyzed by trypan blue dye staining with proper dilution (e.g. 1:5 dilution, 10 μL cells+40 μL trypan blue) and confirmed by NOVA cell count during the last wash step.
CT26 cells were diluted to 6.7×10^5 cells/mL for initial inoculation with plain RPMI and stored on ice. Typically each mouse was inoculated with 150 μL (1×10^5 cells).
CTX solution was reconstituted by 1×PBS to 4 mg/mL. […]
The same dose was given 2 time a week for 4 weeks, total 8 doses. […] Tumor volume was calculated as following: Tumor volume=π(Dshort)^2×(Dlong)/6=˜0.52×(Dshort)^2×(Dlong)
Mice were euthanized and taken off the study if the tumor volume reached 2000 mm^3 or if there were skin ulcers and infections at the tumor inoculation site.
On day 11 post tumor challenge, mice received a single dose of cyclophosphamide (100 mg/kg) and started treatment with anti-PD-1 antibody (250 ug, Clone G4, Hirano F. et al., 2005 Cancer Research) which was administered 3 times per week for four weeks.
On day 11 post tumor challenge, mice received 100 mg/kg of cyclophosphamide. Anti-CTLA4 (an anti-mouse CTLA4 from hamster hybridoma—ATCC deposit UC10-4F10-11) treatment was started 1 day later, on day 12. Mice were treated with 100 ug of anti-CTLA4, 2 doses per week, for 4 weeks.

[2] = tested on: Treg and CD4+ T cells expressing high PD-1; experiment: T cell analysis in CT26 tumor-bearing mice (Treg, PD-1+/CD4+ T cells); format: in vivo, Balb/C mice
Method: On Day 9, mice were injected with 100 mg/kg of CTX, IP. […] Two naïve mice and 4 mice from other groups were removed from the study on Day 11 (2 days post CTX) and Day 16 (7 days post CTX) for T cell analysis. […] Mice implanted with tumor cells intended to have more PD-1+/CD4+ T cells in the draining LN compared with naïve mice.

SP-1 cells = experiment: Metastatic prostate tumor model, survival; format: in vivo, B10.D2 mice; conditions: CTX 50 mg/kg Day 5, 12, 19; B7-DC-Ig 5 mg/kg Day 6, 13, 20; SP-1 cells intravenously
Method: SP-1 cells were isolated from mouse lungs that were metastasized from TRAMP prostate tumor cell injection. B10.D2 mice were first injected with 3×10^5 SP-1 cells via tail vein injection. On Day 5, 12 and 19, mice were injected with 50 mg/kg of CTX where was indicated. […] Here, “NT” refers to “not treated”.
The CTX mice received 3 doses of CTX, 50 mg/kg, on Day 5, 12 and 19.

AB1-HA tumor = conditions: CTX treatment at Day 9; van der Most et al. 2009; cited from earlier work
[3] = target: T1, CHO cell line constitutively expressing PD-1 (Homo sapiens, UniProt Q15116); experiment: Flow cytometry binding to CHO cells expressing PD-1; conditions: various concentrations
T1 construct: expressed in transfected cells; host or cells: CHO
T1 sequence (Q15116 25-288): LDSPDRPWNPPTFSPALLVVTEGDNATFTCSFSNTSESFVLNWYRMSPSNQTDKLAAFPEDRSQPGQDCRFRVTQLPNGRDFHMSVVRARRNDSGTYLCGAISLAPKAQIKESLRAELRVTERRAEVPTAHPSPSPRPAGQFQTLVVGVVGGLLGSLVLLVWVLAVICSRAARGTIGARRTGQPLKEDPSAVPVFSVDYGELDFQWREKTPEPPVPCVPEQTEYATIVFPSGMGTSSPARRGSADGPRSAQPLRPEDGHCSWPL
Method: (§1) Binding was analyzed by flow cytometry.

[4] = tested on: parent CHO cells that do not express PD-1; experiment: Flow cytometry binding to parent CHO cells; conditions: various concentrations
Method: as §1

PD-1 = target: T2, PD-1 (Homo sapiens, UniProt Q15116); experiment: Competition with labeled B7-H1-Ig for binding to PD-1 on CHO cells; conditions: unlabeled competitor at various concentrations, then B7-H1-Ig-APC; MFI
T2 construct: expressed in transfected cells; host or cells: CHO
T2 sequence (Q15116 25-288): as above
From the text: B7-H1-Ig was first conjugated with allophycocyanin (APC).

| Molecule | outcome of mice, CTX alone group ([1]; CTX 100 mg/kg day 10) | Treg in the spleen vs vehicle-injected tumor-bearing mice ([2]; Day 11, 2 days post CTX 100 mg/kg IP) | mice survived on Day 100 (SP-1 cells) [%] | cure rate (AB1-HA tumor) [%] | binding to CHO.PD-1 cells (median fluorescence intensity) [3] | binding to untransfected CHO cells (median fluorescence intensity) [4] | competition with B7-H1 for binding to PD-1 (PD-1) | tumor eradication ([1]; cyclophosphamide 100 mg/kg day 9, 30 μg B7-DC-Ig from Day 10, 2 doses per week, 8 doses) [%] | tumor eradication ([1]; cyclophosphamide 100 mg/kg day 9, 100 μg B7-DC-Ig from Day 10, 2 doses per week, 8 doses) [%] | mice that eradicated the tumors ([1]; cyclophosphamide 100 mg/kg day 9, 300 μg B7-DC-Ig from Day 10, 2 doses per week, 8 doses) [%] | CD4+ T cells expressing high PD-1 ([2]; Day 16, 7 days post CTX and 6 days post B7-DC-Ig 100 ug, draining LN) |
| --- | --- | --- | --- | --- | --- | --- | --- | --- | --- | --- | --- |
| O=P1(N(CCCl)CCCl)NCCCO1 (stereo not drawn) [CTX, cyclophosphamide, reference compound] | died as a result of tumor growth or were euthanized | significantly lower | 17 | 75 | – | – | – | – | – | – | – |
| B1 | – | – | – | – | binds to CHO.PD-1 cells | not untransfected CHO cells | – | – | – | – | – |
| B2 | – | – | 17 | – | – | – | competes with B7-H1 for binding to PD-1 | 10 | 40 | 70 | significantly lowered the CD4+ T cells expressing high PD-1 |

Source: patent US8609089B2, “Compositions of PD-1 antagonists and methods of use” (Amplimmune, Inc., priority 2008, dated 2013)
